Assays:
[1] = target: T1, monkey CD3E protein (Examples 4.2 and 7) (monkey, UniProt Q95LI5 22-117); assay: ELISA
T1 construct: extracellular domain
T1 sequence (looked up): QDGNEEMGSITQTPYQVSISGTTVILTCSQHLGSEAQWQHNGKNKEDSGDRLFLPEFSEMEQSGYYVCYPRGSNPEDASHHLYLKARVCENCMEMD

[2] = target: T1, monkey CD3E protein (Examples 4.2 and 7); assay: ELISA on monkey CD3E
[3] = target: T2, human CD3E protein (Example 4.1) (human, UniProt P07766 23-126); assay: Fortebio (BLI), antibody on protein A sensor, CD3E diluted from 100 nM
T2 construct: extracellular domain

[4] = target: T3, human CD3 on Jurkat cells (human CD3+ cell line) (human, UniProt P07766 23-207); assay: flow cytometry on Jurkat cells, anti hFC-APC detection
T3 construct: whole, on cells; Also used for the T cells of human PBMC in the CD69 assays; also called human CD3 positive cells; CD3 on T cells of PBMC
T3 sequence (P07766 23-207): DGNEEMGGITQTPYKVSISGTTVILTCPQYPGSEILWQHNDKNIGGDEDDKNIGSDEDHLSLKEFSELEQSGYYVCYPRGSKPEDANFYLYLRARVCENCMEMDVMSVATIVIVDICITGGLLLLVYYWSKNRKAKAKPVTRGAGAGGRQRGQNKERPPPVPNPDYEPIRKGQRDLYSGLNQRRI

T2 sequence (P07766 23-126): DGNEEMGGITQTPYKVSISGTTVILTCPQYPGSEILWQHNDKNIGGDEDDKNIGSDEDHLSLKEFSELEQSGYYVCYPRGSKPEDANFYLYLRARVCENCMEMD

Row | Binder | binding result [1] | EC50 [2] [µg/mL] | Kd [3] [nM] | koff [3] [s⁻¹] | kon [3] [M⁻¹ s⁻¹] | EC50 [4] [µg/mL]
1 | OKT3 antibody (control antibody) (antibody, V domains shown) VH: not shown VL: QIVLTQSPAIMSASPGEKVTMTCSASSSVSYMNWYQQKSGTSPKRWIYDTSKLASGVPAHFRGSGSGTSYSLTISGMEAEDAATYYCQQWSSNPFTFGSGTKLEINR | no binding |  |  |  |  | 
2 | CD3 full-length antibody CQ54 (antibody, V domains shown, Includes huVH5 and huVL5) VH: not shown VL: QTVVTQEPSLTVSPGGTVTLTCGSSTGPVTGGNYPNWVQQKPGQAPRGLIGGTKFLAPGTPARFSGSLLGGKAALTLSGVQPEDEAEYYCVLWESNRWVFGGGTKLTVLT |  | 0.375 | 0.97 | 0.000604 | 621000 | 0.023

Source: US20240360216A1 (NOVOPROTEIN SCIENTIFIC, published 2024)
